Test results taken from patent US20030021779A1.

Molecular target: C-antigen (human)
Experiment: cell-fixed ELISA, tumor cell lines

fold greater affinity than the control (BGA scFv): 8 to 50 fold
B1: H11-scFv (scFv)
scFv: DIVLTQSPGTLSLSPGERATLSCRASQSVSSSYLAWYQQKPGQAPRLLIYGASTRATGMPDRFSGSGSGTDFTLTISRLEPEDFAVYYCQQYGSSPQTPQITFGGGTKVEIKRTVAAPSVSGGGGSGGGGSGGGGSQVQLVESGGGVVQPGRSLRLSCAASGFPFRSFAMHWVRQALGKGLEWVAVISYDGSTKYYADSVKGRFTISRDTSKNTVYLKMNSLRTEDTAVYYCARDQSLLGDYDHYYGLDVWGKGTTVTVSSGSEQKLISEEDLNHHHHH
